Test results: patent publication US20250076311A1 (Chugai, published 2025)
Positions count from the first letter of the chain named. Like-named read-outs stand apart in the source and are kept apart here. Values belong to the binder of their own block, whether it stands above or below them.

Tests used:
Human latent myostatin [1] = target: T1, Human latent myostatin (human, UniProt O14793 25-266; O14793 267-375); assay: SPR affinity condition (capture 18.5 RU), pH7.4, 37C
T1 construct: Biotinylated in the ELISAs; also called human myostatin latent form
T1 sequence 1: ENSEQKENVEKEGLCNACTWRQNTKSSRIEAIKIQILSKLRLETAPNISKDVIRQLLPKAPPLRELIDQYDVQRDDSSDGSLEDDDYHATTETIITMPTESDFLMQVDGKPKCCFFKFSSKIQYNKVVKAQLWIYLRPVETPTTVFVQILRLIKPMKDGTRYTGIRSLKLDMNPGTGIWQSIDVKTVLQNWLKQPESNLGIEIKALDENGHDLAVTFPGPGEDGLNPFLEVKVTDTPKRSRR
T1 sequence 2: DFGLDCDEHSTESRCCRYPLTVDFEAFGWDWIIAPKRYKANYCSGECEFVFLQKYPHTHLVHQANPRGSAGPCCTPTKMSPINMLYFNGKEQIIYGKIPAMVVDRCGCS
Protocol: (§1) The kinetic parameters of anti-latent myostatin antibodies against human, cynomolgus monkey (cyno), and mouse latent myostatin were assessed at 37° C. at pH7.4 using a BIACORE® T200 instrument (GE Healthcare). ProA/G (Pierce) was immobilized onto all flow cells of a CM4 chip using amine coupling kit (GE Healthcare). Anti-latent myostatin antibody and analytes were prepared in ACES pH7.4 (20 mM ACES, 150 mM NaCl, 1.2 mM CaCl₂), 0.05% TWEEN® 20, 0.005% NaN3). […] The sensor surface was regenerated with 25 mM NaOH. Kinetic parameters were determined by processing and fitting the data to a 1:1 binding model using BIACORE® T200 Evaluation software, version 2.0 (GE Healthcare).
(§2) All experimental settings were the same as in Example 7, except that measurements were also performed in ACES pH5.8 buffer in addition to ACES pH7.4 condition. Some antibodies were only measured against human latent myostatin. Antibody capture level was aimed at 185 RU and 18.5 RU, for avidity and affinity assay, respectively. Kinetic parameters were determined using 1:1 Binding fitting using BIACORE® T200 Evaluation software, version 2.0 (GE Healthcare).

Human latent myostatin [2] = target: T1, Human latent myostatin; assay: SPR avidity condition (capture 185 RU), pH5.8, 37C; pH 5.8
Protocol: as §1, §2

[3] = target: T2, cynomolgus monkey FcγRIIIaS extracellular domain with C-terminal His-tag (cynomolgus monkey, UniProt Q8SPW2 21-206 at identity 1.00)); assay: SPR, antibody captured, FcγR analyte
T2 construct: also called cyno FcgRIIIaS; cynoFcγRIIIaS
T2 chain: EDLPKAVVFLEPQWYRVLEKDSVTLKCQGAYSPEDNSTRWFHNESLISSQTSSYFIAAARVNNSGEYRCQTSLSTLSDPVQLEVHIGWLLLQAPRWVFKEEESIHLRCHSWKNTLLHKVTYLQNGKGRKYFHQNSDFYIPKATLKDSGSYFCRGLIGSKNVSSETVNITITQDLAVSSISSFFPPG

[4] = target: T3, cynomolgus monkey FcγRIIb extracellular domain with C-terminal His-tag (cynomolgus monkey); assay: SPR, KD(SG1)/KD(variant)
T3 construct: also called cyno FcgRIIb; cynoFcγRIIb
T3 chain: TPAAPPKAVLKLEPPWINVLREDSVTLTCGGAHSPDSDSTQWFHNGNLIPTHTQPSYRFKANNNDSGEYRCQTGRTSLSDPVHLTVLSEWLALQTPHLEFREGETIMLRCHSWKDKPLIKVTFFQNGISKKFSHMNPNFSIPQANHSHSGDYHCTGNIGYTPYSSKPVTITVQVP

[5] = target: T4, cynomolgus monkey FcγRIIa3 extracellular domain with C-terminal His-tag (cynomolgus monkey); assay: SPR, KD(SG1)/KD(variant)
T4 construct: also called cyno FcgRIIa3; cynoFcγRIIa3
T4 chain: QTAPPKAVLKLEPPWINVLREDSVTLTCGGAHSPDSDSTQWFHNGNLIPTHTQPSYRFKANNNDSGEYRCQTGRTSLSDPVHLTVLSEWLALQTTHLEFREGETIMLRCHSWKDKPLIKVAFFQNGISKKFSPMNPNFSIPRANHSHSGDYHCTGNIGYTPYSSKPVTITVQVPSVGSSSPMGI

[6] = target: T2, cynomolgus monkey FcγRIIIaS …; assay: SPR, KD(SG1)/KD(variant)
[7] = target: T5, human FcγRIIb extracellular domain, C-terminal His-tag (human, UniProt P31994 43-217); assay: SPR (BIACORE), antibody captured, FcgR analyte, 25 C
T5 construct: also called FcgRIIb
T5 sequence: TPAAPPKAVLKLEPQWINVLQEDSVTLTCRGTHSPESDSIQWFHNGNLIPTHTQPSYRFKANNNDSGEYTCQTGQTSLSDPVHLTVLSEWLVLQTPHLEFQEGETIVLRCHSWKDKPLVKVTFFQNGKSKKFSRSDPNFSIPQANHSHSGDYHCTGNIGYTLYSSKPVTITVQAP

[8] = target: T6, human FcγRIIb extracellular domain, His-tagged (human, UniProt P31994 43-217); assay: SPR Biacore, antibody captured, FcgR analyte
T6 construct: also called FcgRIIb (human); not shown: C-terminal His-tag
T6 sequence: T5 sequence

[9] = target: T7, human FcγRIIaR extracellular domain, His-tagged (human, UniProt P12318 34-217); assay: SPR Biacore, antibody captured, FcgR analyte
T7 construct: also called human FcγRIIa (type R); FcgRIIaR; not shown: C-terminal His-tag
T7 chain: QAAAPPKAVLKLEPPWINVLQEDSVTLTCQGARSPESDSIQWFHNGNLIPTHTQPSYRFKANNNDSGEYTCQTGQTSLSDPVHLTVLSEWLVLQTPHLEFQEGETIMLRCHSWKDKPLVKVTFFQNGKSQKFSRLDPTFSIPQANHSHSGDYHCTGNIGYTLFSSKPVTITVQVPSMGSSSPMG

[10] = target: T8, cynomolgus monkey FcγRIIa2 extracellular domain, His-tagged (cynomolgus monkey); assay: SPR Biacore, antibody captured, FcgR analyte
T8 construct: also called cyno FcγRIIa2; cynoFcgRIIa2; not shown: C-terminal His-tag
T8 chain: T4 chain with I127K, K130N, P133H, R142Q

[11] = target: T9, cynomolgus monkey FcγRIIIaS extracellular domain, His-tagged (cynomolgus monkey, UniProt Q8SPW2 21-206 at identity 1.00)); assay: SPR Biacore, antibody captured, FcgR analyte
T9 construct: also called cyno FcγRIIIaS; cynoFcγRIIIaS; not shown: C-terminal His-tag
T9 chain: T2 chain

[12] = target: T6, human FcγRIIb extracellular domain, …; assay: SPR Biacore, KD(SG1)/KD(variant)
[13] = target: T2, cynomolgus monkey FcγRIIIaS …; assay: SPR, KD(SG1)/KD(variant)
Protocol: (§3) The kinetic analysis of interactions between these antibodies and FcγR was carried out using BIACORE® T200 or BIACORE® 4000 (GE Healthcare). HBS-EP+ (GE Healthcare) was used as the running buffer, and the measurement temperature was set to 25° C. […] After the measurement, the antibody captured on the chip was washed off by allowing reaction with 10 mM glycine-HCl, pH1.5 and 25 mM NaOH so that the chip was regenerated and used repeatedly. The sensorgrams obtained as measurement results were analyzed by the 1:1 Langmuir binding model using the BIACORE® Evaluation Software to calculate the binding rate constant ka (L/mol/s) and dissociation rate constant kd (1/s), and the dissociation constant KD (mol/L) was calculated from these values. […] Regarding such interactions, KD values were calculated using the following 1:1 binding model described in BIACORE® T100 Software Handbook BR1006-48 Edition AE.

[14] = target: T2, cynomolgus monkey FcγRIIIaS …; assay: SPR, antibody captured, FcγR analyte
Protocol: as §3

[15] = target: T10, human FcγRIIaH extracellular domain with C-terminal His-tag (human, UniProt P12318 34-217); assay: SPR, antibody captured, FcγR analyte
T10 construct: also called human FcgRIIaH; FcγRIIa (type H)
T10 sequence: T7 chain with R134H

[16] = target: T11, human FcγRIIIaV extracellular domain with C-terminal His-tag (human, UniProt P08637 17-208); assay: SPR, KD(SG1)/KD(variant)
T11 construct: also called human FcgRIIIaV
T11 sequence (P08637 17-208 F176V): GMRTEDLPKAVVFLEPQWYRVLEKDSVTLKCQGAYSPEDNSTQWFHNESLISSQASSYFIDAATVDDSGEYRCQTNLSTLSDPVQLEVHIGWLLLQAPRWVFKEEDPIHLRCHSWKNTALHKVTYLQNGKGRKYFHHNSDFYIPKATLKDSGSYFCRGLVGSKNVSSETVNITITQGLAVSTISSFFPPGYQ

[17] = target: T12, cynomolgus monkey FcγRIIa2 extracellular domain with C-terminal His-tag (cynomolgus monkey); assay: SPR, KD(SG1)/KD(variant)
T12 construct: also called cyno FcgRIIa2; cynoFcγRIIa2
T12 chain: T4 chain with I127K, K130N, P133H, R142Q

[18] = target: T13, human FcγRIIaR extracellular domain with C-terminal His-tag (human, UniProt P12318 34-217); assay: SPR, KD(SG1)/KD(variant)
T13 construct: also called human FcgRIIaR; FcγRIIa (type R)
T13 chain: T7 chain

[19] = target: T14, human FcγRIIb extracellular domain with C-terminal His-tag (human, UniProt P31994 43-217); assay: SPR, KD(SG1)/KD(variant)
T14 construct: also called human FcgRIIb
T14 sequence: T5 sequence

B2: MS1032LO06-MY201 (antibody, human IgG1, kappa)
heavy: QVTLKESGPVLVKPTETLTLTCTVSGIDLSHDDISWVRQAPGKGLEWVGIISYAGSTYYASWAKGRLTISKDTSKNQVVLTMTNMDPVDTATYYCARGVPAYSHGGDLWGQGTLVTVSSASTKGPSVFPLAPSSKSTSGGTAALGCLVKDYFPEPVTVSWNSGALTSGVHTFPAVLQSSGLYSLSSVVTVPSSSLGTQTYICNVNHKPSNTKVDKKVEPKSCDKTHTCPPCPAPELLNGPSVFLFPPKPKDTLMISRTPEVTCVVVDVSDEDPEVKFNWYVDGVEVHNAKTKPREEQYNSTYRVVSVLTVLHQDWLNGKEYKCKVSNKALPKPIEKTISKAKGQPREPQVYTLPPSREEMTKNQVSLTCLVKGFYPSDIAVEWESNGQPENNYKTTPPVLDSDGSFFLYSKLTVDKSRWQQGNVFSCSVMHEALHNHYTQKSLSLSP
light: DIVMTQSPATLSLSPGERATLSCTSSQSVYHANWLSWFQQKPGQPPKLLIYWASTLAYGVPSRFSGSGSGTDFTLTISSLQPEDAATYYCAGGYGGGRYAFGQGTKVEIKRTVAAPSVFIFPPSDEQLKSGTASVVCLLNNFYPREAKVQWKVDNALQSGNSQESVTEQDSKDSTYSLSSTLTLSKADYEKHKVYACEVTHQGLSSPVTKSFNRGEC
notes: also called M103205H795-MY201; copies: 2 + 2
Kd [3]: 3.7 µM
KD fold (SG1 = 1) [4]: 5 fold
KD fold (SG1 = 1) [5]: 4.5 fold
KD fold (SG1 = 1) [6]: 0.08 fold

B4: M103205H795-MY074/M103202L889-SK1 (antibody, human IgG1, kappa, name in EU numbering)
heavy: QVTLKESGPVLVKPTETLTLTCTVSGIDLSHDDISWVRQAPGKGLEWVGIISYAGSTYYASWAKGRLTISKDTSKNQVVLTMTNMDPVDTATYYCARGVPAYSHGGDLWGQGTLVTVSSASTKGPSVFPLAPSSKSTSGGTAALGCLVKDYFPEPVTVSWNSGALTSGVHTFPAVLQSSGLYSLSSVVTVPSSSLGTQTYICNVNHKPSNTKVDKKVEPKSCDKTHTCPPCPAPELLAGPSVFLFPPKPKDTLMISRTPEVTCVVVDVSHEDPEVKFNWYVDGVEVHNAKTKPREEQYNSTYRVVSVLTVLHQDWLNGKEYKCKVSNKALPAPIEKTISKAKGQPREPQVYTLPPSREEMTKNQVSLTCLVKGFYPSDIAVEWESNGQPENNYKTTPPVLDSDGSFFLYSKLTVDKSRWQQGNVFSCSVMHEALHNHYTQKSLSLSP
light: B2 light
notes: Substitution introduced into M103205H795-SG1; EU numbering
Kd [8]: 3.6 µM
Kd [9]: 0.21 µM
Kd [10]: 2.3 µM

B5: M103205H795-MY001/M103202L889-SK1 (antibody, human IgG1, kappa, name in EU numbering)
heavy: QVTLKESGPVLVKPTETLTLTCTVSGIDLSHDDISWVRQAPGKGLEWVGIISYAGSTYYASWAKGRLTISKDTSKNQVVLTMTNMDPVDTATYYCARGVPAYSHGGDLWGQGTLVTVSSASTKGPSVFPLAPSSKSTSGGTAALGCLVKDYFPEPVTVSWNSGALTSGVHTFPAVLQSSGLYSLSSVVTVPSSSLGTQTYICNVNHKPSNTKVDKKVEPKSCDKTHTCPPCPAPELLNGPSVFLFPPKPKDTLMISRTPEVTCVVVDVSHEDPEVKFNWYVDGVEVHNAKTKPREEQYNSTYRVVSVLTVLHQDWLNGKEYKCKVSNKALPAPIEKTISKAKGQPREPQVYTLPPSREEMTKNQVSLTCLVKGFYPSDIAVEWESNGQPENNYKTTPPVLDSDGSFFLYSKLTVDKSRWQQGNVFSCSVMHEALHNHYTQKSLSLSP
light: B2 light
notes: as for B4
Kd [11]: 12 µM
KD fold (SG1 = 1) [12]: 6.6 fold

Now from value to binder:

kon (Human latent myostatin [1]): 1.54e+06 M⁻¹ s⁻¹
kon (Human latent myostatin [2]): 781000 M⁻¹ s⁻¹
B1: MS_M103205H707-SG1/M103202L802-SK1 (antibody, human IgG1, kappa, V domains shown)
VH: QVTLKESGPVLVKPTETLTLTCTVSGIDLSHYDISWVRQAPGKGLEWVGIISYAGSTYYASWAKGRLTISKDTSKNQVVLTMTNMDPVDTATYYCARGVPAYSHGGDLWGQGTLVTVSS
VL: DIVMTQSPATLSLSPGERATLSCTSSQSVYHDNWLSWFQQKPGQPPKLLIYWASTLAYGVPSRFSGSGSGTDFTLTISSLQPEDAATYYCAGGYGGGLYAFGQGTKVEIKR
notes: also called MS1032LO04-SG1

Kd [7]: 5.8 µM
B3: MS103240H795-SG1/M103202L1045-SK1 (antibody, human IgG1, kappa)
heavy: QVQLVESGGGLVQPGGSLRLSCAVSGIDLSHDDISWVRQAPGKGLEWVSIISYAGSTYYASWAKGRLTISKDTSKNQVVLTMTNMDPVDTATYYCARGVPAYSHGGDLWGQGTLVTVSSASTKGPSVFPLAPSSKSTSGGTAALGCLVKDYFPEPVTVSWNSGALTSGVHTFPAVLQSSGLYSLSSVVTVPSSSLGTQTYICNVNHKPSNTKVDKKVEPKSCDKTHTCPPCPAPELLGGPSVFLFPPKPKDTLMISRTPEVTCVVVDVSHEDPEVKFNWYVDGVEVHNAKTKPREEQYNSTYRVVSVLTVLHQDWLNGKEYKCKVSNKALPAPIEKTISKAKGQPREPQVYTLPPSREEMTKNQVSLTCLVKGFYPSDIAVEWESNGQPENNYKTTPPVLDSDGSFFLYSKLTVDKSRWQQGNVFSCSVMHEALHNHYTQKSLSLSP
light: B2 light with S25T, A32E
notes: Parent of the Fc variants; anti-latent myostatin variable region, human IgG1-type constant region SG1; also called MS1032LO19-SG1; copies: 2 + 2

KD fold (SG1 = 1) [13]: 0.07 fold
Kd [14]: 5.2 µM
Kd [3]: 4.1 µM
Kd [15]: 0.012 µM
KD fold (SG1 = 1) [16]: 0.03 fold
KD fold (SG1 = 1) [17]: 3.8 fold
KD fold (SG1 = 1) [6]: 0.07 fold
KD fold (SG1 = 1) [18]: 0.8 fold
KD fold (SG1 = 1) [19]: 4.7 fold
B6: MS1032LO06-MY351 (antibody, human IgG1, kappa)
heavy: B2 heavy with Q313R, D415K
light: B2 light
notes: also called M103205H795-MY351; copies: 2 + 2
